Data taken from paper PMC3581363 (Biochemistry, 2013).

Molecular target: the molecule itself
Test: cross-linking

B1: sigma-1 receptor cysteine 94 alanine / methionine 170 cysteine (C94A/M170C) double mutant (receptor, guinea pig, UniProt Q60492 1-223, looked up)
chain: MQWAVGRRWLWVALFLAAVAVLTQIVWLWLGTQNFVFQREEIAQLARQYAGLDHELAFSKLIVELRRLHPVHVLPDEELQWVFVNAGGWMGAMALLHASLSEYVLLFGTALGSPRHSGRYWAEISDTIISGTFHQWREGTTKSEVFYPGETVVHGPGEATAVEWGPNTWCVEYGRGVIPSTLGFALADTVFSTQDFLTLFYTLRVYARALQLELTTYLFGQDP
**Q.** B1 was tested. Which “stoichiometry N” value did it give?
**A.** The value was 2.
